From US20240209086A1 (PETMEDIX, published 2024)

T1: canine CD20 on cells (HEK293, MDCK II, CLBL-1 or native B cells) (canine, UniProt Q3C2E2 1-297)
T1 chain: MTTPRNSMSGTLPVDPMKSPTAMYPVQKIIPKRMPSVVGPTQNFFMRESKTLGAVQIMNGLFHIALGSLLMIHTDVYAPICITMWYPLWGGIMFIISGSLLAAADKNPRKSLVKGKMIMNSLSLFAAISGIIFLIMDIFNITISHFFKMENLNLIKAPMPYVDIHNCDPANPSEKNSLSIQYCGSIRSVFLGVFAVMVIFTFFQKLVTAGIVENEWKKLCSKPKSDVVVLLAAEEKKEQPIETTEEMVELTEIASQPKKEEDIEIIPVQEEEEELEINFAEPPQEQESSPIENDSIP


Tests used:
[1] = target: T1, canine CD20 on cells (HEK293, MDCK II, …); assay: cell-based or functional assay
[2] = target: T1, canine CD20 on cells (HEK293, MDCK II, …); assay: cell-based or functional assay

| Binder | EC50 (nM), endogenous B cell depletion in PBMC (FIG. 16A) [1] [nM] | EC50 (nM), bispecific killing (FIG. 15) [2] [nM] |
| --- | --- | --- |
| PMX172VH/PMX262VH/PMX172VL (bispecific antibody, V domains shown) VH 1: EVQLVESGGDLVKPGGSLRLSCVASGFTFSSYHMSWVRQAPGKGLQWVAYSNSGGSRTSYADAVKGRFTISRDNAKNTLYLQMNSLRAEDTAVYYCASEGGGGRYGYKDYGMDYWGHGTSLFVSS VH 2: EVQLVESGGDLVKPGGSLRLSCVASGITFSRYYMNWVRQAPGKGLQWVAYINSGGSPTTYADAVKGRFTISRDNAKNTLYLQMNSLRAEDTAVYYCTSFDYWGQGTLVTVSS VL: SYVLTQLPSKNVTLKQPAHITCGGDNIGSKSVHWYQQKLGQAPVLIIYYDSSRPTGIPERFSGANSGNTATLTISGALAEDEADYYCQVWDSSAKAWVFGEGTQLTVL | 0.247 | 0.129 |
| PMX172VH/PMX229VH/PMX172VL (bispecific antibody, V domains shown) VH 1: EVQLVESGGDLVKPGGSLRLSCVASGFTFSSYHMSWVRQAPGKGLQWVAYSNSGGSRTSYADAVKGRFTISRDNAKNTLYLQMNSLRAEDTAVYYCASEGGGGRYGYKDYGMDYWGHGTSLFVSS VH 2: EVQLVESGGDLVKPGGSLRLSCVASGITFSRYHMSWVRQAPGKGLQWVAFINTGRSSTNYADAVAGRFTISRDNAKNTLYLQMNGLTVEDTAVYYCSTLDYWGQGTLVTVSS VL: SYVLTQLPSKNVTLKQPAHITCGGDNIGSKSVHWYQQKLGQAPVLIIYYDSSRPTGIPERFSGANSGNTATLTISGALAEDEADYYCQVWDSSAKAWVFGEGTQLTVL |  | 1.02 |
| PMX172VH/PMX268VH/PMX172VL (bispecific antibody, V domains shown) VH 1: EVQLVESGGDLVKPGGSLRLSCVASGFTFSSYHMSWVRQAPGKGLQWVAYSNSGGSRTSYADAVKGRFTISRDNAKNTLYLQMNSLRAEDTAVYYCASEGGGGRYGYKDYGMDYWGHGTSLFVSS VH 2: EVQLVESGGDLMKPGGSLRLSCVASGITFSGYHMSWVRQAPGKGLQWVAFINSGRKNTAYADAVKGRFTISRDNAKNTLYLQMNSLRAEDTAIYYCTTLEFWGQGTLVTVSS VL: SYVLTQLPSKNVTLKQPAHITCGGDNIGSKSVHWYQQKLGQAPVLIIYYDSSRPTGIPERFSGANSGNTATLTISGALAEDEADYYCQVWDSSAKAWVFGEGTQLTVL | 0.764 |  |
| PMX172VH/PMX230VH/PMX172VL (bispecific antibody, V domains shown) VH 1: EVQLVESGGDLVKPGGSLRLSCVASGFTFSSYHMSWVRQAPGKGLQWVAYSNSGGSRTSYADAVKGRFTISRDNAKNTLYLQMNSLRAEDTAVYYCASEGGGGRYGYKDYGMDYWGHGTSLFVSS VH 2: EVHLVESGGDLVKPGGSLRLSCVASGITFNRYYMNWVRQTPGKGLQWVAYIDSGGSPTTYADAVKGRFTISRDNAKNTLYLQMNSLRAEDTAVYYCTSFDYWGQGTLVTVSS VL: SYVLTQLPSKNVTLKQPAHITCGGDNIGSKSVHWYQQKLGQAPVLIIYYDSSRPTGIPERFSGANSGNTATLTISGALAEDEADYYCQVWDSSAKAWVFGEGTQLTVL | 0.183 | 0.121 |
| PMX172VH/PMX240VH/PMX172VL (bispecific antibody, V domains shown) VH 1: EVQLVESGGDLVKPGGSLRLSCVASGFTFSSYHMSWVRQAPGKGLQWVAYSNSGGSRTSYADAVKGRFTISRDNAKNTLYLQMNSLRAEDTAVYYCASEGGGGRYGYKDYGMDYWGHGTSLFVSS VH 2: EVQLVESGGDLVKPGGSLRLSCVASGLTFSRYHMSWVRQAPGKGLQWVAFINSGRSDTTYADAVKGRFTISRDNAKNTLYLQMNSLRAEDTAVYYCTTFDYWGQGTLVTVSS VL: SYVLTQLPSKNVTLKQPAHITCGGDNIGSKSVHWYQQKLGQAPVLIIYYDSSRPTGIPERFSGANSGNTATLTISGALAEDEADYYCQVWDSSAKAWVFGEGTQLTVL |  | 0.341 |
